According to patent US20170165337A1 (IMMATICS BIOTECHNOLOGIES, published 2017):
Where no end group is shown, it is not given here. [ ]: non-standard residue; d: D form. pS = N[C@@H](COP(=O)(O)O)C(=O)O

Target: T1, HLA-A*02:01 (human)
T1 construct: MHC class I monomer of the UV-ligand exchange assay; also called peptide-receptive MHC molecules; MHC class I
Test: UV peptide-exchange ELISA
Excerpt: Candidate peptides for T cell based therapies according to the present invention were further tested for their MHC binding capacity (affinity). The individual peptide-MHC complexes were produced by UV-ligand exchange, where a UV-sensitive peptide is cleaved upon UV-irradiation, and exchanged with the peptide of interest as analyzed. Only peptide candidates that can effectively bind and stabilize the peptide-receptive MHC molecules prevent dissociation of the MHC complexes. To determine the yield of the exchange reaction, an ELISA was performed based on the detection of the light chain (β2m) of stabilized MHC complexes. The assay was performed as generally described in Rodenko et al. (Rodenko et al., 2006).
96 well MAXISorp plates (NUNC) were coated over night with 2 ug/ml streptavidin in PBS at room temperature, washed 4× and blocked forl h at 37° C. in 2% BSA containing blocking buffer. Refolded HLA-A*02:01/MLA-001 monomers served as standards, covering the range of 15-500 ng/ml. Peptide-MHC monomers of the UV-exchange reaction were diluted 100 fold in blocking buffer. Samples were incubated for 1 h at 37° C., washed four times, incubated with 2 ug/ml HRP conjugated anti-β2m for 1 h at 37° C., washed again and detected with TMB solution that is stopped with […]. Absorption was measured at 450 nm. Candidate peptides that show a high exchange yield (preferably higher than 50%, most preferred higher than 75%) are generally preferred for a generation and production of antibodies or fragments thereof, and/or T cell receptors or fragments thereof, as they show sufficient avidity to the MHC molecules and prevent dissociation of the MHC complexes.

peptide exchange yield | Binder
50 to 75% | LLPTAPTTV
50 to 75% | SLSFLVPSL
50 to 75% | KLWEGLTELV
50 to 75% | FMASHLDYL
50 to 75% | LLFDHLEPMEL
50 to 75% | KTLDVDATYEI
50 to 75% | YLLSGDISEA
50 to 75% | AIDAALTSV
50 to 75% | ALFTF[pS]PLTV [ALFTFJPLTV]
50 to 75% | ALLRLLPGL
50 to 75% | LLFDKLYLL
50 to 75% | LLLEIGEVGKLFV
50 to 75% | SLDNGGYYI
50 to 75% | NLLDIDAPVTV
50 to 75% | KLWNVAAPLYL
50 to 75% | NLIKTVIKL
50 to 75% | LLLEETEKQAV
10 to 20% | LLVLIPVYL
50 to 75% | LLIPVVPGV
50 to 75% | SLIRILQTI
50 to 75% | SLFDQPLSII
50 to 75% | SLNIRDFTM
50 to 75% | SALDTITTV

peptide exchange yield | Binder
10 to 20% | LQALEVLKI
50 to 75% | SQLDISEPYKV
50 to 75% | ALGEDEITL
50 to 75% | LLILENILL
50 to 75% | LLPEGGITAI
50 to 75% | SLLAELHVL
50 to 75% | VIYTLIHYI
50 to 75% | VVDGMPPGV
50 to 75% | LIPEGPPQV
20 to 50% | KLMNDIADI
50 to 75% | SMDDGMINV
10 to 20% | MTAGFSTIAGSV
≥ 75% | SLLAELHVLTV
20 to 50% | QLDEPAPQV
50 to 75% | QLLDTYFTL
50 to 75% | VLPAEFFEV
20 to 50% | SMKDDLENV
50 to 75% | ILYNLYDLL
50 to 75% | LLIGATMQV
20 to 50% | NLDKLWTLV
50 to 75% | SLFDSAYGA
20 to 50% | IQDRAVPSL
50 to 75% | RLLILENILL

peptide exchange yield | Binder
50 to 75% | SLPEAPLDV
50 to 75% | SIVASLITV
50 to 75% | NLTDVVEKL
50 to 75% | KLILLDTPLFL
50 to 75% | QIAELPATSV
50 to 75% | LLSEEEYHL
50 to 75% | SLNIGDVQL
50 to 75% | SLMLEVPAL
50 to 75% | SIIEGPIIKL
50 to 75% | SILETVATL
50 to 75% | AIPPSFASIFL
20 to 50% | QILSEIVEA
50 to 75% | ALPEVSVEA
50 to 75% | SLQEEKLIYV
50 to 75% | KVPAEEVLVAV
20 to 50% | KLGGTPAPA
50 to 75% | LVYEAIIMV
≥ 75% | RLYEITIEV
50 to 75% | FVYGESVEL
≥ 75% | MLLEHGITLV
20 to 50% | LLLAEAELLTL
